PMC11619291, “Functional and structural analyses of IMP-27 metallo-β-lactamase: evolution of IMP-type enzymes to overcome Zn(II) deprivation” (Microbiology Spectrum, 2024)

Tests used:
Experiment in all cases: purified protein
Conditions in all cases: no added Zn(II), 20 mM HEPES pH 7.5, 30°C
[1] = tested on: CC1=C(C(=O)O)N2C(=O)[C@@H](NC(=O)[C@H](N)c3ccccc3)[C@H]2SC1
[2] = tested on: CC(=O)OCC1=C(C(=O)O)N2C(=O)[C@@H](NC(=O)Cc3cccs3)[C@H]2SC1; type: biochemical, Serratia marcescens
Excerpt: (§1) steady-state hydrolysis, UV-VIS spectrophotometry on IMP-1

[3] = tested on: CC(C)(O/N=C(\C(=O)N[C@@H]1C(=O)N2C(C(=O)[O-])=C(C[n+]3ccccc3)CS[C@H]12)c1csc(N)n1)C(=O)O; type: biochemical, Serratia marcescens
Excerpt: as §1

[4] = tested on: CC1(C)S[C@@H]2[C@H](NC(=O)Cc3ccccc3)C(=O)N2[C@H]1C(=O)O; type: biochemical, Serratia marcescens
Excerpt: as §1

[5] = tested on: CC1(C)S[C@@H]2[C@H](NC(=O)[C@H](N)c3ccccc3)C(=O)N2[C@H]1C(=O)O; type: biochemical, Serratia marcescens
Excerpt: as §1

[6] = tested on: CO/N=C(\C(=O)N[C@@H]1C(=O)N2C(C(=O)O)=C(COC(C)=O)CS[C@H]12)c1csc(N)n1; type: biochemical, Serratia marcescens
Excerpt: as §1

[7] = tested on: C[C@@H](O)[C@H]1C(=O)N2C(C(=O)O)=C(SCCN=CN)C[C@H]12; type: biochemical, Serratia marcescens
Excerpt: as §1

[8] = tested on: C[C@@H](O)[C@H]1C(=O)N2C(C(=O)O)=C(S[C@@H]3CN[C@H](C(=O)N(C)C)C3)[C@H](C)[C@H]12; type: biochemical, Serratia marcescens
Excerpt: as §1

[9] = tested on: CC(=O)OCC1=C(C(=O)O)N2C(=O)[C@@H](NC(=O)Cc3cccs3)[C@H]2SC1; type: biochemical, Morganella morganii
Excerpt: (§2) steady-state hydrolysis, UV-VIS spectrophotometry on IMP-27

[10] = tested on: CC(C)(O/N=C(\C(=O)N[C@@H]1C(=O)N2C(C(=O)[O-])=C(C[n+]3ccccc3)CS[C@H]12)c1csc(N)n1)C(=O)O; type: biochemical, Morganella morganii
Excerpt: as §2

[11] = tested on: CC1(C)S[C@@H]2[C@H](NC(=O)Cc3ccccc3)C(=O)N2[C@H]1C(=O)O; type: biochemical, Morganella morganii
Excerpt: as §2

[12] = tested on: CC1(C)S[C@@H]2[C@H](NC(=O)[C@H](N)c3ccccc3)C(=O)N2[C@H]1C(=O)O; type: biochemical, Morganella morganii
Excerpt: as §2

[13] = tested on: CO/N=C(\C(=O)N[C@@H]1C(=O)N2C(C(=O)O)=C(COC(C)=O)CS[C@H]12)c1csc(N)n1; type: biochemical, Morganella morganii
Excerpt: as §2

[14] = tested on: C[C@@H](O)[C@H]1C(=O)N2C(C(=O)O)=C(S[C@@H]3CN[C@H](C(=O)N(C)C)C3)[C@H](C)[C@H]12; type: biochemical, Morganella morganii
Excerpt: as §2

Substance: IMP-1 (Serratia marcescens)
- Km [1]: 18.5 ± 2.9 µM
- kcat [1]: 75.1 s⁻¹
- kcat/Km [1]: 4.06e+06 M⁻¹ s⁻¹
- Km [2]: 1.62 ± 0.21 µM
- kcat [2]: 82.5 ± 5.9 s⁻¹
- kcat/Km [2]: 5.11e+07 M⁻¹ s⁻¹
- Km [3]: 38.1 ± 1.6 µM
- kcat [3]: 14.2 ± 0.8 s⁻¹
- kcat/Km [3]: 373000 M⁻¹ s⁻¹
- Km [4]: 144 ± 6 µM
- kcat [4]: 367 ± 38 s⁻¹
- kcat/Km [4]: 2.56e+06 M⁻¹ s⁻¹
- Km [5]: 41.8 ± 7.6 µM
- kcat [5]: 37.6 ± 3.1 s⁻¹
- kcat/Km [5]: 899000 M⁻¹ s⁻¹
- Km [6]: 3.44 ± 0.12 µM
- kcat [6]: 26 ± 1.8 s⁻¹
- kcat/Km [6]: 7.55e+06 M⁻¹ s⁻¹
- Km [7]: 48.6 ± 10.2 µM
- kcat [7]: 87.6 ± 4.5 s⁻¹
- kcat/Km [7]: 1.88e+06 M⁻¹ s⁻¹
- Km [8]: 83.3 ± 16.1 µM
- kcat [8]: 25.1 ± 4.4 s⁻¹
- kcat/Km [8]: 301000 M⁻¹ s⁻¹

Substance: IMP-27 (Morganella morganii)
- Km [1]: 5.47 ± 0.53 µM
- kcat [1]: 1.19 s⁻¹
- kcat/Km [1]: 217000 M⁻¹ s⁻¹
- Km [9]: 9.23 ± 0.88 µM
- kcat [9]: 290 ± 39 s⁻¹
- kcat/Km [9]: 3.14e+07 M⁻¹ s⁻¹
- Km [10]: 27.5 ± 3.4 µM
- kcat [10]: 2.02 ± 0.3 s⁻¹
- kcat/Km [10]: 73200 M⁻¹ s⁻¹
- Km [11]: 218 ± 28 µM
- kcat [11]: 20.3 ± 2.2 s⁻¹
- kcat/Km [11]: 93200 M⁻¹ s⁻¹
- kcat [12]: > 7.25 s⁻¹
- kcat/Km [12]: 28800 M⁻¹ s⁻¹
- Km [13]: 6.57 ± 0.96 µM
- kcat [13]: 50.7 ± 6.6 s⁻¹
- kcat/Km [13]: 7.72e+06 M⁻¹ s⁻¹
- Km [14]: 4.21 ± 0.29 µM
- kcat [14]: 6.79 ± 0.8 s⁻¹
- kcat/Km [14]: 1.63e+06 M⁻¹ s⁻¹
